Reference: publication PMC4330346, “Function of the N-terminal segment of the RecA-dependent nuclease Ref” (Nucleic Acids Research, 2015)

Tests used:
[1] = target: ϕW39 R11C Ref (bacteriophage ϕW39); assay: cross-linking; non-specific cross-linker disuccinimidyl glutarate (DSG) to trap the oligomeric states of Ref (Supplementary Figure S2)
[2] = target: ϕW39 R11C Ref (bacteriophage ϕW39); assay: non-reducing SDS-PAGE; Ref dialysed free of DTT; 6.5 μg Ref, 50 mM sodium phosphate pH 7.5, 75 mM sodium chloride, no DTT; non-reducing cracking buffer, 4–15% gradient SDS-PAGE; the dimer is taken as disulfide-linked; 10 mM DTT substantially reduced the dimers of P1 WT Ref and ϕW39 R11C
[3] = target: the molecule itself; assay: AUC; preliminary ultracentrifugation, unpublished data; conditions not given
phiW39 deltaN74 Ref = target: T1, phiW39 deltaN74 Ref (bacteriophage phiW39, R86T;A93T;N107E;A115S); assay: fluorescence polarization; 25 mM Tris-acetate pH 8.5, 3 mM potassium glutamate, 15 mM magnesium acetate, 5% w/v glycerol, 2 nM DNA, Ref 0.5-10000 nM, 15 min at room temperature, read at 25 C; one-site fit with Hill coefficient; conditions: protein: recombinant, tags: none (native form)
T1 sequence: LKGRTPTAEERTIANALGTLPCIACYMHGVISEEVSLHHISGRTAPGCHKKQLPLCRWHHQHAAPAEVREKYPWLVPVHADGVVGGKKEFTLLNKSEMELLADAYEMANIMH

P1 deltaN76 Ref = target: T2, P1 deltaN76 Ref (bacteriophage P1, UniProt P35926 77-186, del1-76); assay: as above; conditions: protein: recombinant, tags: none (native form)
T2 sequence: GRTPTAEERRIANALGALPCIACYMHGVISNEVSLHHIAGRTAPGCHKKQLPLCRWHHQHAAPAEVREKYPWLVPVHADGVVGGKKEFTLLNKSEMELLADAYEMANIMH

phiW39 WT Ref = target: T3, phiW39 WT Ref (bacteriophage phiW39, I8L;C11R;K13E;V34A;T46S;L47I;R86T;A93T;N107E;A115S); assay: fluorescence polarization; apparent Kd; 25 mM Tris-acetate pH 8.5, 3 mM potassium glutamate, 15 mM magnesium acetate, 5% w/v glycerol, 2 nM DNA, Ref 0.5-10000 nM, 15 min at room temperature, read at 25 C; one-site fit with Hill coefficient; conditions: protein: recombinant, tags: none (native form)
T3 sequence: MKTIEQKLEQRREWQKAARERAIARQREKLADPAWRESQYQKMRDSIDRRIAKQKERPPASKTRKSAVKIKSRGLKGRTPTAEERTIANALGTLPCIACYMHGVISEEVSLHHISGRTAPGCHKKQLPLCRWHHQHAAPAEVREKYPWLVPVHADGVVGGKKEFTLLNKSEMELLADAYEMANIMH

phiW39 deltaN59 Ref = target: T4, phiW39 deltaN59 Ref (bacteriophage phiW39, R86T;A93T;N107E;A115S); assay: fluorescence polarization; Kd value only in Figure 2C; 25 mM Tris-acetate pH 8.5, 3 mM potassium glutamate, 15 mM magnesium acetate, 5% w/v glycerol, 2 nM DNA, Ref 0.5-10000 nM, 15 min at room temperature, read at 25 C; one-site fit with Hill coefficient; conditions: protein: recombinant; tags: none (native form); label: 5' 6-FAM; single strand
T4 sequence: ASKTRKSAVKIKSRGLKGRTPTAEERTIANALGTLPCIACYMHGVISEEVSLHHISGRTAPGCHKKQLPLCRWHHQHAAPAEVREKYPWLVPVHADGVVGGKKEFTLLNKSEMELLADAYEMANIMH

[4] = label: 5' 6-FAM on strand 1, blunt

## ϕW39 R11C Ref (enzyme)
[1]
  stoichiometry N: 2
[2]
  stoichiometry N: 2

B1: bacteriophage P1 Ref (recombination enhancement function) protein, wild type (enzyme, UniProt P35926 1-186, looked up)
chain: MKTIEQKIEQCRKWQKAARERAIARQREKLADPVWRESQYQKMRDTLDRRIAKQKERPPASKTRKSAVKIKSRGLKGRTPTAEERRIANALGALPCIACYMHGVISNEVSLHHIAGRTAPGCHKKQLPLCRWHHQHAAPAEVREKYPWLVPVHADGVVGGKKEFTLLNKSEMELLADAYEMANIMH
notes: has Cys11; Purified in native form (no tag)
[3]
  stoichiometry N: 2

B2: AJM25 71mer ssDNA (ssDNA)
DNA: CAGAAGTAAGTTGGCCGCAGTGTTATCACTCATGGTTATGGCAGCACTGCATAATTCTCTTACTGTCATGC
phiW39 deltaN74 Ref; label: 5' 6-FAM, single strand
  binding result: no binding
P1 deltaN76 Ref; label: 5' 6-FAM, single strand
  binding result: no binding
phiW39 WT Ref; label: 5' 6-FAM, single strand
  Kd: 28 ± 2 nM
phiW39 deltaN59 Ref
  binding signal: ~40 fold reduction in affinity

B3: AJM25/AJG52 71 bp dsDNA (dsDNA)
DNA 1: CAGAAGTAAGTTGGCCGCAGTGTTATCACTCATGGTTATGGCAGCACTGCATAATTCTCTTACTGTCATGC
DNA 2: GCATGACAGTAAGAGAATTATGCAGTGCTGCCATAACCATGAGTGATAACACTGCGGCCAACTTACTTCTG
phiW39 deltaN74 Ref; [4]
  binding result: no binding
P1 deltaN76 Ref; [4]
  binding result: no binding
phiW39 WT Ref; [4]
  Kd: 24 ± 1 nM
